{"source": "patent US20110286916A1", "about": "(published 2011)", "binders": {"B1": {"name": "hN1S3-146 (scFv, V domains shown)", "VH": "EVQLVQSGPEVKKPGTSVKVSCKASGFTFTSSAVQWVRQARGQRLEWIGWIVVGSGNTNYAQKFQERVTITRDMSTSTAYMELSSLRSEDTAVYYCVADTVYWGKGTLVTVSS", "VL": "QAVLTQPSSVSEAPRQRVTISCSGSSSNIGKNAVNWYQQLPGKAPKLLIYYDDLMPSGVSDRFSGSKSGTSASLAISGLQSEDEADYFCAAWDDSLSGWVFGGGTKLTVL", "notes": "phage scFv"}, "B2": {"name": "N1wc99 (scFv, V domains shown)", "VH": "QVQLVQSGAEVKKPGASVKVSCKASGYTFTSYGISWVRQAPGQGLEWMGWISAYNGNTNYAQKLQGRVTMTTDTSTSTAYMELRSLRSDDTAVYYCARLASRAFDIWGRGTLVTVSS", "VL": "QSVLTQPASVSGSPGQSITISCTGTSSDVGGYNYVSWYQQHPGKAPKLMIYEGSKRPSGVSNRFSGSKSGNTASLTISGLQAEDEADYYCSSYTTRSTRVFGGGTKLTVL", "notes": "phage scFv"}, "B3": {"name": "N1wc145 (scFv, V domains shown)", "VH": "B2 VH with Q1E, Q6E, S31T, A53T, N59K, L99D, S101R, R102K", "VL": "B2 VL with Q1H, S2V, V3I, A8R", "notes": "phage scFv"}, "B4": {"name": "N1wc104 (scFv, V domains shown)", "VH": "QVQLQESGPGLVKPSGTLSLTCAVSGVSLATNNWWLWVRQSPGKGLEWIGEIYHSGYTNYNPSLKSRVTISVDKSSNQLSLDLRSITAADTAVYYCARRYCDNGVCYPFDHWGQGTMVTVSS", "VL": "SYVLTQPPSVSEAPRQTVTISCSGNSFNIGRYPVNWYQQLPGKAPKLLIYYNNLRFSGVSDRFSGSKSGTSASLAIRDLLSEDEADYYCSTWDDTLKGWVFGGGTKLTVL", "notes": "phage scFv"}, "B5": {"name": "N1wc106 (scFv, V domains shown)", "VH": "QVQLVQSGAEVKRPGASVNLSCKASGYSFSRYYIHWVRQAPGQGLELMGRINPGGGTTTYAQKFQGRVTLSRDTSTNTIFMELNGLTSEDTAMYYCARSNYDILAGYGPDAFDFWGRGTLVTVSS", "VL": "QAVLTQPSSVSGAPGQRVTISCTGSSSNIGADNDVHWYQKFPGTAPKLLIFSNNNRPSGVPDRFSGSKSGTSASLAITGLQADDEADYYCQSYDSGLTRELFGGGTKLTVL", "notes": "phage scFv"}, "B6": {"name": "hN1S3-052 (scFv, V domains shown)", "VH": "QVQLVQSGAEVKKPGASVRISCKTSGFTFTSYFIHWVRQAPGQRPEWMGVINPSRGNADYAPRFRGRVTMTRDKSTHTVYMDLKSLRSDDAAIYYCARDRLGGLLDYYDSSDSSKNFDAFDFWGQGTLVTVSS", "VL": "QAVLTQPSLASGTPGQRVTISCSGGSSNIGRHTVNWYQQLPGAAPKLLMHSSDQRPSGVPDRFSGSKSGTSASLAISGLQSEDEADYYCAAWDASLKNWVFGGGTKLTVL", "notes": "phage scFv"}, "B7": {"name": "hN1S3-073 (scFv, V domains shown)", "VH": "B6 VH", "VL": "DIQMTQSPSSLSAFVGDRVTITCRASQGINNYLAWFQQKPGKAPKSLIYAASTLRSGVPPRFSGSGSGTDFTLTISSLQPEDFATYYCQQYDSYPHTFGQGTRLEIK", "notes": "phage scFv"}, "B8": {"name": "hN1S3-067 (scFv, V domains shown)", "VH": "B6 VH with Q1E", "VL": "NFMLTQPHSVSESPGKTVIISCTRSSGSIASNYVQWLQQRPGSSPTTVIYDDNRRPSGVPDRFSGSIDGSSNSASLTISGLKTEDEADYYCQSYDRFDHVVFGGGTKLTVL", "notes": "phage scFv"}, "B9": {"name": "N1wc48 (scFv, V domains shown)", "VH": "QVQLVQSGAEVKKPGATVKISCKVSGYTFTDYYIHWVQQAPGKGLEWMGLVDPEDGETIYAEKFQGRVTIIADTSTDTAYMELSSLRSEDTAVYYCATGPFRLDSWGQGTMVTVSS", "VL": "QSVLTQPPSVSGAPGQRVTISCTGSSSNIGAGYDVHWYQQLPGSAPKLLIYGNNNRPSGVPDRFSGSKSGTSASLAITGLQAEDEADYYCQSFDNRLSDFNVFGTGTKVTVL", "notes": "phage scFv"}, "B10": {"name": "N1wc33 (scFv, V domains shown)", "VH": "EVQLVESGGDLVQPGGSLRLSCAASGFTFSDSWMHWVRQVPGKGLEWVSHIGIDGITTNYADSVKGRFTISRDNAKNTLYLQMNNLRAEDTAVYYCARNVGWESRPWGQGTLVTVSS", "VL": "SYVLTQPPSASGAPGQRVTISCSGSDSNIGRNTVNWYQQQLPGTAPTLLIYTNNQRPSGVPDRFSGSKSGTSASLAISGLQSGDEADYYCAAWDDSLNAYFFGPGTKLTVL", "notes": "phage scFv"}, "B11": {"name": "N1wc158 (scFv, V domains shown)", "VH": "EVQLVQSGAEVKKPGASVKVSCKASGYNFTGYYMHWVRQAPGQGLEWMGWINPNSGGTNYAQKFQGRVTMTRDTSISTAYMELSRLRSDDTAVYYCATDSFDYWGRGTLVTVSS", "VL": "not shown", "notes": "phage scFv"}, "B12": {"name": "hN1S3-126 (scFv, V domains shown)", "VH": "B11 VH with R106Q", "VL": "SYVLTQPPSASGAPGQRVTISCSGSISNIGDNTVNWYQHLPRTAPKLVIYSDVQRPSGVPERFSGSKSGTSASLVISGLQAEDEADYYCASWDDSLDGVFFGGGTKLTVL", "notes": "phage scFv"}, "B13": {"name": "N1wc103 (scFv, V domains shown)", "VH": "B11 VH with E1Q, V5Q, M81V", "VL": "not shown", "notes": "phage scFv"}, "B14": {"name": "N1wc110 (scFv, V domains shown)", "VH": "B11 VH with R106Q, L109M", "VL": "QSVVTQPPSASGSPGQRVTIACSGSSSNIGSNTVNWYQHVPGTAPKLLIYNNNQRPSGVQDRFSGSKSDTSASLAISGLQAEDEAVYYCATWDDSLIGLAFGGGTKLTVL", "notes": "phage scFv"}, "B15": {"name": "hN1S3-050 (scFv, V domains shown)", "VH": "not shown", "VL": "LPVLTQPPSASGTPGQRVTISCSGRSSNIGSNFVYWYQQLPGTAPKLLIYRNNQRPSGVPDRFSGSKSGTSASLAISGLRSEDEADYYCATWDDNLSGVVFGGGTKLTVL", "notes": "phage scFv"}, "B16": {"name": "hN1S3-174 (scFv, V domains shown)", "VH": "B11 VH with R106Q, L109T", "VL": "QSVLTQPPSVSGAPGQRITISCTGSSSNIGAGYDVHWYQQLPGTAPKLLIYGNSYRPSGVPDRFSGSKSGTSASLAITGLQAEDEADYYCQSYDSSLTGSIFGGGTKLTVL", "notes": "phage scFv"}, "B17": {"name": "hN1S3-010 (scFv, V domains shown)", "VH": "B11 VH with T69I, R87T, L109M", "VL": "not shown", "notes": "phage scFv"}, "B18": {"name": "hN1S3-113 (scFv, V domains shown)", "VH": "B11 VH", "VL": "SYVLTQPPSASGTPGQRVTISCSGSSPNIGSNTVNWYQQLPGTAPKLLIYTNNQRPSGVPDRFSGSKSATSASLAISGLQFDDEADYFCAAWDDSLLGVVFGGGTKVTVL", "notes": "phage scFv"}}, "biological_target": "T1, human full-length Notch1 with C-terminal FLAG tag, stably expressed on 293 FlpIn (TREx) cells (human, UniProt P46531 19-2555)", "T1 construct": "tetracycline/doxycycline-induced expression from pcDNA5/FRT/TO-HN1+FLAG; also called hN1; 293_N1", "test": "FACS, phage scFv", "note": "Residue numbers refer to the chain shown, from its start.", "data": [{"binder": "B1", "values": [{"measurement": "binding result", "value": "binds"}]}, {"binder": "B2", "values": [{"measurement": "binding result", "value": "binds"}]}, {"binder": "B3", "values": [{"measurement": "binding result", "value": "binds"}]}, {"binder": "B4", "values": [{"measurement": "binding result", "value": "binds"}]}, {"binder": "B5", "values": [{"measurement": "binding result", "value": "binds"}]}, {"binder": "B6", "values": [{"measurement": "binding result", "value": "binds"}]}, {"binder": "B7", "values": [{"measurement": "binding result", "value": "binds"}]}, {"binder": "B8", "values": [{"measurement": "binding result", "value": "binds"}]}, {"binder": "B9", "values": [{"measurement": "binding result", "value": "binds"}]}, {"binder": "B10", "values": [{"measurement": "binding result", "value": "binds"}]}, {"binder": "B11", "values": [{"measurement": "binding result", "value": "binds"}]}, {"binder": "B12", "values": [{"measurement": "binding result", "value": "binds"}]}, {"binder": "B13", "values": [{"measurement": "binding result", "value": "binds"}]}, {"binder": "B14", "values": [{"measurement": "binding result", "value": "binds"}]}, {"binder": "B15", "values": [{"measurement": "binding result", "value": "binds"}]}, {"binder": "B16", "values": [{"measurement": "binding result", "value": "binds"}]}, {"binder": "B17", "values": [{"measurement": "binding result", "value": "binds"}]}, {"binder": "B18", "values": [{"measurement": "binding result", "value": "binds"}]}]}
